# Assay results from US5811393A (The Childrens Medical Center Corp., priority 1993, dated 1998).
# Assay: Heparin affinity chromatography (NaCl elution from immobilized heparin)
# Type: binding
# Details: partially purified sample, 0.2-2M NaCl gradient, pH 7.5
# Source text: Heparin affinity chromatography has been used extensively for purifying and characterizing a variety of these growth factors. Acidic FGF (aFGF) and basic FGF (bFGF) bind to immobilized heparin columns and are eluted with 1.0M to 1.2M NaCl and 1.5M to 1.8M NaCl, respectively (Folkman and Klagsbrun, 235 Science 442, 1987; Lobb et al., 261 J. Biol. Chem. 1924, 1986). Several growth factors which are structurally homologous to aFGF and bFGF also have an affinity for heparin (see, for example, Rubin et al., 86 Proc. Natl. Acad. Sci. USA 802, 1989). PDGF binds to immobilized heparin, but with relatively low affinity, being eluted with only 0.5M NaCl. […] Lobb et al. (261 J. Biol. Chem. 1924, 1986) report the partial purification by heparin affinity of two classes of growth factors mitogenic for endothelial cells. Gospodarowicz et al. (81 Proc. Natl. Acad. Sci. USA 6963, 1984) report the use of heparin affinity in the purification of bovine brain and pituitary fibroblast growth factors. Shing et al. (29 J. Cell Biochem. 275, 1985) report a chondrosarcoma-derived growth factor purified by heparin-Sepharose affinity chromatography and Bio Rex 70 cation exchange chromatography. […]
# HB-EHM was purified as follows. Growth factor activity was monitored during the purification procedures using BALB/c mouse 3T3 cells as target cells and measuring [^3 H]-thymidine incorporation into DNA. […]
molecule,measurement,value
"HB-EHM: novel heparin binding growth factor with EGF-homologous segment, purified from U-937 lymphoma cell conditioned medium, about 22 kD (protein, O-linked glycosylation (suggested by O-glycanase treatment; the threonines predicted at positions 2 and 12 of the form first sequenced were not detected in protein sequencing)) RVTLSSKPQALATPNKEEHGKRKKKGKGLGKKRDPCLRKYKDFCIHGECKYVKELRAPSCICHPGYHGERCHGLS",NaCl concentration eluting from the TSK-heparin column,1 to 1.2 M
